# ± gives the standard deviation.
# Assay: protein stability index of a GFP-peptide fusion (GPS, HEK-293T) (PSI 1-6); higher = more stable
# Details: c terminus: a fixed tail appended
# 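Further: 24-mer peptide tiles fused after GFP, lentivirally expressed, FACS-sorted into six equal bins by GFP/DsRed ratio, decoded by Illumina sequencing, PSI is the read-weighted mean bin number.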
sequence,measurement,setting,value
IEQFSESHAIHVEEQSDQSFSSLE [IQUB],protein stability index,treatment: DMSO,5.1 ± 0.095
same,protein stability index,"treatment: MLN4924 1 uM, 8 h",5.14 ± 0.17
HVSYRELGACVRTAVAQGGWRSLW [SLC25A39],protein stability index,treatment: DMSO,2.01 ± 0.19
same,protein stability index,"treatment: MLN4924 1 uM, 8 h",2.13 ± 0.2
KMNDSEGMDPERLKAFNMFVRLFV [NOL4L],protein stability index,treatment: DMSO,2.08 ± 0.11
same,protein stability index,"treatment: MLN4924 1 uM, 8 h",2.23 ± 0.26
SCRRKQEDDRDGLLAEREQEEAIA [TMEM106C],protein stability index,treatment: DMSO,5.45 ± 0.33
same,protein stability index,"treatment: MLN4924 1 uM, 8 h",5.42 ± 0.091
GLLSLLLPETLNSPLLETFSDLQV [SLC22A15],protein stability index,treatment: DMSO,2.47 ± 0.67
same,protein stability index,"treatment: MLN4924 1 uM, 8 h",2.68 ± 0.68
ESAAFSQGSRSGVSGGSRSLNMSR [PHTF1],protein stability index,treatment: DMSO,4.44 ± 0.17
same,protein stability index,"treatment: MLN4924 1 uM, 8 h",4.5 ± 0.23
GPTGVTMTSNPITWGQIKKTTQEA [CDK11A],protein stability index,treatment: DMSO,4.55 ± 0.21
same,protein stability index,"treatment: MLN4924 1 uM, 8 h",4.51 ± 0.4
QNKIRACGERLSLGLSRAQPVQSK [PDLIM7],protein stability index,treatment: DMSO,3.92 ± 0.28
same,protein stability index,"treatment: MLN4924 1 uM, 8 h",3.85 ± 0.2
TPSNFQHIGHVGWDPNTGFDLNNL [WASL],protein stability index,treatment: DMSO,3.24 ± 0.3
same,protein stability index,"treatment: MLN4924 1 uM, 8 h",3.47 ± 0.4
EAPEAELSQAPAEGPDLVPAALGS [HES6],protein stability index,treatment: DMSO,5.5 ± 0.31
same,protein stability index,"treatment: MLN4924 1 uM, 8 h",5.41 ± 0.35
SPWDQEERPAQRDCSFPGLPRHQD [TRAF3IP2],protein stability index,treatment: DMSO,5.48 ± 0.23
same,protein stability index,"treatment: MLN4924 1 uM, 8 h",5.36 ± 0.38
CAVLDDSIYLVGGYSWSMGAYKSS [KLHL14],protein stability index,treatment: DMSO,2.52 ± 0.64
same,protein stability index,"treatment: MLN4924 1 uM, 8 h",2.17 ± 0.64
AVTPAGVVNKYQINGLQAWLLTHL [DHCR7],protein stability index,treatment: DMSO,2.19 ± 0.23
same,protein stability index,"treatment: MLN4924 1 uM, 8 h",2.15 ± 0.16
KHGFSWAVPKFMKRIKVPDYKDRS [DLC1],protein stability index,treatment: DMSO,2.56 ± 0.08
same,protein stability index,"treatment: MLN4924 1 uM, 8 h",2.94 ± 0.31
DAVTAALLIPKEDGVITASEDRTI [WDFY1],protein stability index,treatment: DMSO,4.7 ± 0.13
same,protein stability index,"treatment: MLN4924 1 uM, 8 h",4.86 ± 0.27
SARWLEVLRTYLELVLCVLVSIRN [FBXO33],protein stability index,treatment: DMSO,2.33 ± 0.31
same,protein stability index,"treatment: MLN4924 1 uM, 8 h",2.16 ± 0.21
DNQWMTQINRLQKLIDRLEKKDLK [NECAB1],protein stability index,treatment: DMSO,2.13 ± 0.43
same,protein stability index,"treatment: MLN4924 1 uM, 8 h",3.16 ± 0.33
TEFTRFLCSSPLEAETPPNGPDCG [ATE1],protein stability index,treatment: DMSO,4.66 ± 0.086
same,protein stability index,"treatment: MLN4924 1 uM, 8 h",4.52 ± 0.17
TRRTLKGHGNKVLCMDWCKDKRRI [GNB5],protein stability index,treatment: DMSO,3.02 ± 0.37
same,protein stability index,"treatment: MLN4924 1 uM, 8 h",3.25 ± 0.23
ALIDRPAPYFERSSSKRYTMSRSL [EPB41L3],protein stability index,treatment: DMSO,2.8 ± 0.31
same,protein stability index,"treatment: MLN4924 1 uM, 8 h",3.12 ± 0.58
YSLVTHIPAGARDIQIVERKKSAD [ADAMTSL2],protein stability index,treatment: DMSO,4.37 ± 0.22
same,protein stability index,"treatment: MLN4924 1 uM, 8 h",4.67 ± 0.41
INYCALNKPGCEHECVNMEESYYC [MATN2],protein stability index,treatment: DMSO,3.26 ± 0.7
same,protein stability index,"treatment: MLN4924 1 uM, 8 h",3.28 ± 0.64
DLQLTVGGAQASGTLIGVGQSVTA [MFSD9],protein stability index,treatment: DMSO,3.52 ± 0.34
same,protein stability index,"treatment: MLN4924 1 uM, 8 h",3.6 ± 0.24
SNCLGIRDFAETHNCVDLMQAAEV [KLHL12],protein stability index,treatment: DMSO,4.05 ± 0.64
same,protein stability index,"treatment: MLN4924 1 uM, 8 h",3.68 ± 0.59
LATLEGDDPSLRKTHSSPALSQGH [PSD2],protein stability index,treatment: DMSO,4.44 ± 0.14
same,protein stability index,"treatment: MLN4924 1 uM, 8 h",4.6 ± 0.16
HECKLTQEILELIDREVDLMMRGV [IQUB],protein stability index,treatment: DMSO,2.88 ± 0.2
same,protein stability index,"treatment: MLN4924 1 uM, 8 h",3.17 ± 0.67
KVESGAWIGYEHTSFCGQQFILER [CRYBA1],protein stability index,treatment: DMSO,2.18 ± 0.26
same,protein stability index,"treatment: MLN4924 1 uM, 8 h",2.18 ± 0.19
HRFVEKPQVFVSNKINAGMYILSP [GMPPB],protein stability index,treatment: DMSO,2.25 ± 0.21
same,protein stability index,"treatment: MLN4924 1 uM, 8 h",2.29 ± 0.13
VPSLNAALMHTLQRHRDILQVIYW [GOSR1],protein stability index,treatment: DMSO,2.23 ± 0.55
same,protein stability index,"treatment: MLN4924 1 uM, 8 h",2.4 ± 0.41
TEDGKLDIWSKSNYQVFQKVTDHA [MED27],protein stability index,treatment: DMSO,3.67 ± 0.27
same,protein stability index,"treatment: MLN4924 1 uM, 8 h",3.77 ± 0.42
ATPGGGTGEAARPHKGLNLHPLLS [PCDHGC5],protein stability index,treatment: DMSO,3.74 ± 0.17
same,protein stability index,"treatment: MLN4924 1 uM, 8 h",3.83 ± 0.21
PQSPDFLDITNPKAVLENALRNFA [UFD1],protein stability index,treatment: DMSO,2.86 ± 0.35
same,protein stability index,"treatment: MLN4924 1 uM, 8 h",2.55 ± 0.57
CDECGKIFSQSSALILHQRIHSGK [ZNF396],protein stability index,treatment: DMSO,5.51 ± 0.39
same,protein stability index,"treatment: MLN4924 1 uM, 8 h",5.51 ± 0.11
DVLAHQVPNAKKLRRKEQLWEKLA [NOP53],protein stability index,treatment: DMSO,2.84 ± 0.36
same,protein stability index,"treatment: MLN4924 1 uM, 8 h",3.09 ± 0.29
KRAESDSRKSSIPNNKEIPSHHPT [PTPRD],protein stability index,treatment: DMSO,5.151 ± 0.046
same,protein stability index,"treatment: MLN4924 1 uM, 8 h",5.08 ± 0.078
PLQNQKILKRTGQRYEHGRTLKSY [ZNF649],protein stability index,treatment: DMSO,2.89 ± 0.45
same,protein stability index,"treatment: MLN4924 1 uM, 8 h",3.53 ± 0.41
ERRRRFNINDRIKELGTLIPKSSD [TFE3],protein stability index,treatment: DMSO,4.04 ± 0.099
same,protein stability index,"treatment: MLN4924 1 uM, 8 h",4.09 ± 0.2
AASPQDLAGGYTSSLACHRALQDA [MNAT1],protein stability index,treatment: DMSO,4.21 ± 0.25
same,protein stability index,"treatment: MLN4924 1 uM, 8 h",4.24 ± 0.37
ATYIFIFIGETLLSMNWAIVADIL [SPNS1],protein stability index,treatment: DMSO,3.13 ± 0.39
same,protein stability index,"treatment: MLN4924 1 uM, 8 h",2.68 ± 0.74
CAIQASLNQGSVFQEYDTDCEVFR [ZNF449],protein stability index,treatment: DMSO,2.79 ± 0.82
same,protein stability index,"treatment: MLN4924 1 uM, 8 h",2.67 ± 0.48
RKRNPSRKKQHICDECGKHFSQGS [ZNF24],protein stability index,treatment: DMSO,3.91 ± 0.19
same,protein stability index,"treatment: MLN4924 1 uM, 8 h",4.12 ± 0.097
MAQTVPPCELPCKEYDVARNTGAY [TEKT4],protein stability index,treatment: DMSO,4.16 ± 0.27
same,protein stability index,"treatment: MLN4924 1 uM, 8 h",4.08 ± 0.26
AAQEGEDEGASAGQGPKPEADSQE [GAGE1],protein stability index,treatment: DMSO,5.67 ± 0.17
same,protein stability index,"treatment: MLN4924 1 uM, 8 h",5.64 ± 0.24
TVKMLRTQRPAMVQTEDQYQFSYR [PTPRD],protein stability index,treatment: DMSO,2.84 ± 0.37
same,protein stability index,"treatment: MLN4924 1 uM, 8 h",2.97 ± 0.33
LKFDMKYMNFRVKACNKAVAGEFS [FSD1],protein stability index,treatment: DMSO,2.34 ± 0.26
same,protein stability index,"treatment: MLN4924 1 uM, 8 h",2.17 ± 0.2

# Reference: the supplement of paper PMC10567573
